T1: ERα (Homo sapiens, UniProt P03372)
T1 construct: expressed in transfected cells; host or cells: CV-1 (African green monkey kidney)
T1 sequence (P03372 1-595): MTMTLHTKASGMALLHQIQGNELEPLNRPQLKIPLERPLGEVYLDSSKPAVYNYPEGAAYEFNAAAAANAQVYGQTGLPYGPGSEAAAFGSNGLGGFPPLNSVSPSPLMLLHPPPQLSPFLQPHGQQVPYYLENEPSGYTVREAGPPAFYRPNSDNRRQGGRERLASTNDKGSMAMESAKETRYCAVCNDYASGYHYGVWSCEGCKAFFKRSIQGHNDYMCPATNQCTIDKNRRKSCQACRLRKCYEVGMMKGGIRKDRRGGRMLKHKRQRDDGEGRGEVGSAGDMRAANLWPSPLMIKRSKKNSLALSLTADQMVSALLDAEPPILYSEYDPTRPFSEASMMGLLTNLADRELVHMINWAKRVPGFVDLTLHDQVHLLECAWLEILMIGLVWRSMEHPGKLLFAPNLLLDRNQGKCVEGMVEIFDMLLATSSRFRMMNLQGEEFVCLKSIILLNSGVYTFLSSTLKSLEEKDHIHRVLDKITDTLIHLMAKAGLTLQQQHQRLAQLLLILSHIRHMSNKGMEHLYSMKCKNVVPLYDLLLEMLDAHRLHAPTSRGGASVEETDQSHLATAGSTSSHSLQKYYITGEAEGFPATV

T2: TR (Homo sapiens, UniProt P10827)
T2 construct: expressed in transfected cells; host or cells: CV-1 (African green monkey kidney)
T2 sequence (P10827 1-410 isoform P10827-2): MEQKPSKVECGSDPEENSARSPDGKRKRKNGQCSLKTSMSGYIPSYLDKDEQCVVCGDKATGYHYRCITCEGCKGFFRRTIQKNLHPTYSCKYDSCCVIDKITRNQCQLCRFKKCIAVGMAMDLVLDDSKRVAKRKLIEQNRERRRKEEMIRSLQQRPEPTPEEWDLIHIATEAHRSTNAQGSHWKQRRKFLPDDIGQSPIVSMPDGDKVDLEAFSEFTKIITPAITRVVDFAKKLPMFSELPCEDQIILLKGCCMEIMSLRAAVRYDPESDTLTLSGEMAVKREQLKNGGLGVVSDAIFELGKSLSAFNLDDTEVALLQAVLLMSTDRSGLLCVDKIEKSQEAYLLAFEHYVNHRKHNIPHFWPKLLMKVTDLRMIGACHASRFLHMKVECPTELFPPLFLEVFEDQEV


What was measured:
Type in all cases: cell-based
[1] = target: T1, ERα; test: Reporter gene assay, ERRγ3 or ERRγ2 coexisted with ERα in CV-1 cells; conditions: for enhancement of the transcriptional activation function of ERα: absence of 4-hydroxytamoxifen
Method: The reporter gene assay was performed using CV-1 cells (African green monkey kidney-derived cell line) as hosts. Host cells were transfected with luciferase reporter plasmids and expression plasmids for ERRγ3, ERRγ2, or both. They were then exposed to 4-hydroxytamoxifen at different concentrations (0, 10^−10 to −10^−5 M) for 24 hours, whereupon luciferase activity within the cells was measured.
Transfection was performed as follows: CV-1 cells were suspended at 2×10^5 cells/2.5 ml in DMEM medium supplemented with 10% fetal bovine serum, 2000 U/l of penicillin G, and 100 mg/l streptomycin. These cells were seeded to a 6-well plate at 2.5 ml/well, and cultured for 18 to 24 hours in a CO2 incubator at 37° C. in the presence of 5% CO2. 1 μg of each of the transcription factor expression plasmid, the luciferase reporter plasmid, and another luciferase reporter plasmid for normalizing the measured value (pRL-TK), were dissolved in Opti-MEM (Gibco BRL) to total of 150 μl. 7 μl of the cell transfection reagent LipofectAMINE 2000 (Gibco BRL) was diluted in 143 μl of Opti-MEM, and this was added to the mixture drop by drop while stirring. The mixture was incubated for 20 minutes.
The LipofectAMINE-DNA mixture was diluted in 1.5 ml of Opti-MEM, and added to cells that had been twice washed with 1 ml of PBS(−). The cells were cultured for four hours. The transfection reagent was removed from the culture, and 200 μl of trypsin/EDTA was added to the cells, which were then incubated at 37° C. for five minutes. […] of DMEM was added to suspend the cells, which were transferred to a centrifuge tube, and centrifuged for three minutes at 1000 rpm. After centrifugation, the cells were resuspended in DMEM to a concentration of 1.6×10^4 cells/100 μl, and 100 μl samples were seeded to a 96-well plate. When evaluating agents, a two-fold concentrated solution was made by pre-diluting a 1000 times concentrated agent DMSO solution with culture medium. 50 μl of the solution was mixed with 50 μl of a cell suspension at 1.6×10^4 cells/50 μl, and the culture was incubated in a CO2 incubator at 37° C. and 5% CO2 for 24 hours.
Luciferase activity was measured using the Dual-Luciferase™ Reporter Assay System (Promega). The culture supernatant was removed from each well of the 96-well plate and washed once with 100 μl of PBS(−). 20 μl of ×1 PLB (Passive Lysis Buffer) was added, and the mixture was incubated at room temperature for 15 minutes, and then stored at −20° C. in the freezer until use. […] The protocol for measurement was as follows: 50 μl of Luciferase Assay Reagent II was added to each well, stirred for 0.3 seconds and measured for one second. […] of Stop&Glo™ Reagent was then added, stirred for 0.3 seconds, and measured for one second. […] Average values and standard errors were calculated from triplicate samples.
To confirm whether or not ERRγ3 can regulate the transcription-controlling function of nuclear receptors other than ERRγ2, ERRγ3's function of regulating the transcription-controlling activity of nuclear receptors related to ERRγ (ERα, ERβ, and TR) was evaluated using a reporter gene assay. […] In addition to 4-hydroxytamoxifen, the cells were also contacted with 10^−5 M of (R)-estradiol in experiments related to ERα and ERβ, and 10^−5 M of thyroxine in the experiment related to TR.
The transfected cells were contacted with varying concentrations of 4-hydroxytamoxifen in the absence of […] or presence of 10^−7 M of β-estradiol.

[2] = target: T3, ERβ (Homo sapiens, UniProt Q92731); test: Reporter gene assay, ERRγ3 coexisted with ERβ in CV-1 cells
T3 construct: expressed in transfected cells; host or cells: CV-1 (African green monkey kidney)
T3 sequence (Q92731 whole entry): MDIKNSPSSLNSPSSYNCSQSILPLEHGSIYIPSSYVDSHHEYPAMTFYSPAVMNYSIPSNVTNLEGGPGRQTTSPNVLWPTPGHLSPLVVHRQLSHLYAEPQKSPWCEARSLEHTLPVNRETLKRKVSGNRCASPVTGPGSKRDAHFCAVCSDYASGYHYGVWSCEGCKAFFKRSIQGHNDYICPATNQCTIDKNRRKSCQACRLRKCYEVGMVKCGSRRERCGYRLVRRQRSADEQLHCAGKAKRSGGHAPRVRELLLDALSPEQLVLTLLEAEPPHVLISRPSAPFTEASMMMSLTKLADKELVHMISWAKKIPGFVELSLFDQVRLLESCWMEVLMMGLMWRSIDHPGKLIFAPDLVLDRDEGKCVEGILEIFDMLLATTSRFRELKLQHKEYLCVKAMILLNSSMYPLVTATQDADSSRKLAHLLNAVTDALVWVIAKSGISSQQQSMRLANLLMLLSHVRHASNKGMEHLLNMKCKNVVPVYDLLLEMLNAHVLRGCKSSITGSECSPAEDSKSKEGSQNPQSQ

[3] = target: T2, TR; test: Reporter gene assay, ERRγ3 coexisted with TR in CV-1 cells

| effect of 4-hydroxytamoxifen on the enhancing function of ERRγ3 on ERβ ([2]; 10^−5 M (R)-estradiol present) | effect of 4-hydroxytamoxifen on the enhancing function of ERRγ3 on TR ([3]; 10^−5 M thyroxine present) | function enhancement of the transcription-controlling activity of ERα ([1]; ERRγ3 with ERα, 10^−5 M (R)-estradiol, CV-1 cells, FIG. 16) | enhancement of the transcriptional activation function of ERα ([1]; absence of β-estradiol, FIG. 19) | enhancement of the transcriptional activation function of ERα ([1]; presence of 10^−7 M β-estradiol, FIG. 20) | function enhancement of the transcription-controlling activity of ERβ ([2]; ERRγ3 with ERβ, 10^−5 M (R)-estradiol, FIG. 17) | function enhancement of the transcription-controlling activity of TR ([3]; ERRγ3 with TR, 10^−5 M thyroxine, FIG. 18) | Molecule | effect of 4-hydroxytamoxifen on the function of ERRγ3 on ERα ([1]; in the presence of the ligand, 10^−5 M (R)-estradiol, CV-1 cells) | effect of 4-hydroxytamoxifen on the transcription enhancing function of ERRγ3 on ERα ([1]; β-estradiol absent or 10^−7 M, 4-hydroxytamoxifen at high concentrations, FIGS. 19-20) |
| --- | --- | --- | --- | --- | --- | --- | --- | --- | --- |
| no function-enhancing effect | no function-enhancing effect | – | – | – | – | – | 4-hydroxytamoxifen [reference compound] | increased dependent on the concentration of 4-hydroxytamoxifen | reduced in the presence of 4-hydroxytamoxifen at high concentrations |
| – | – | 13-74% | 64% | 18% | 600-650% | 128-229% | ERRγ3: novel ERRγ isoform, nuclear receptor protein of 396 amino acids (SEQ ID NO: 2) lacking part of the DNA binding domain (protein, listed as Homo sapiens) MSNKDRHIDSSCSSFIKTEPSSPASLTDSVNHHSPGGSSDASGSYSSTMNGHQNGLDSPPLYPSAPILGGSGPVRKLYDDCSSTIVEDPQTKCEYMLNSMPKRLCLVCGDIASGYHYGVASCEACKAFFKRTIQGVRLDRVRGGRQKYKRRIDAENSPYLNPQLAQPAKKPYNKIVSHLLVAEPEKIYAMPDPTVPDSDIKALTTLCDLADRELVVIIGWAKHIPGFSTLSLADQMSLLQSAWMEILILGVVYRSLSFEDELVYADDYIMDEDQSKLAGLLDLNNAILQLVKKYKSMKLEKEEFVTLKAIALANSDSMHIEDVEAVQKLQDVLHEALQDYEAGQHMEDPRRAGKMLMTLPLLRQTSTKAVQHFYNIKLEGKVPMHKLFLEMLEAKV | – | – |
